Experimental data from patent US20220363769A1 (SORRISO PHARMACEUTICALS, published 2022).
Substitutions are numbered along the chain they refer to. In names and notes the source's numbering stands.

T1: recombinant human IL-7Rα-His6-Fc (human, UniProt P16871 21-239)
T1 construct: also called hIL-7R; not shown: His6 tag; Fc (captured by anti-human IgG Fc)
T1 chain: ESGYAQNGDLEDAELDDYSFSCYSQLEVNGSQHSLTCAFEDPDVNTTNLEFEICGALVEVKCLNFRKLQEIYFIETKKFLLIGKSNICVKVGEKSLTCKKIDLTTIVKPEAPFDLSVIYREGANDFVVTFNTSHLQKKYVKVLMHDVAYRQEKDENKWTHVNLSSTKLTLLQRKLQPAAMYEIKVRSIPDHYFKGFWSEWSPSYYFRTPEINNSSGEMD

B1: ID-A29U (VHH)
VHH: EVQLVESGGGLVQAGGSLRLSCESSISTFSSDAMGWFRQAPGKGLEWLAAIGWSGAVTHYSDSVKGRFTISRDNAKNTVYLQMNSLRSEDTGRYYCAEDYDTDVWQYWGQGTQVTVSS
notes: V7R-2E9 with E44G, R45L, F47W, Q65K, K87R
B2: ID-A30U (VHH)
VHH: B1 VHH with L45R, W47F, S88A
notes: V7R-2E9 with E44G, Q65K, K87R, S88A
B3: V7R-2E5 (VHH)
VHH: B1 VHH with A14P, G44E, L45R, W47F, K65Q, R87K
notes: llama ICVD, primary clone, expressed in E. coli TG1; not shown: C-terminal FLAG and 6xHis tags from vector pMEK222
B4: ID-A35U (VHH)
VHH: B1 VHH with G44E, L45R, W47F, R87K, S88A
notes: V7R-2E9 with Q65K, S88A
B5: V7R-2F6 (VHH)
VHH: B1 VHH with S27G, G44E, L45R, W47F, A56T, K65Q, R87K
notes: as for B3
B6: ID-A37U (VHH)
VHH: B1 VHH with L45R, W47F
notes: V7R-2E9 with E44G, Q65K, K87R
B7: ID-A31U (VHH)
VHH: B1 VHH with L45R, W47F, R87K
notes: V7R-2E9 with E44G, Q65K
B8: V7R-4F6 (VHH)
VHH: B1 VHH with S30G, G44E, L45R, W47F, L48V, I51T, R87K, R93T
notes: as for B3
B9: V7R-2B6 (VHH)
VHH: EVQLVESGGGLVQAGGSLRLSCESSARTFSDDAMGWFRQAAGKEREFLAAINWSGAVTHYGDSVKGRFTISRDNAKNTVYLQMDSLKPEDTAVYYCAEDYDTDVWQHWGQGTQVTVSS
notes: as for B3
B10: V7R-3B5 (VHH)
VHH: B1 VHH with A14V, G44E, L45R, W47F, K65Q, R87K
notes: as for B3
B11: ID-A33U (VHH)
VHH: B1 VHH with L45R, W47F, K65Q, R87K, S88A
notes: V7R-2E9 with E44G, S88A
B12: ID-A32U (VHH)
VHH: B1 VHH with L45R, W47F, K65Q
notes: V7R-2E9 with E44G, K87R
B13: ID-A39U (VHH)
VHH: B1 VHH with L45R, W47F, K65Q, S88A
notes: V7R-2E9 with E44G, K87R, S88A
B14: ID-A34U (VHH)
VHH: B1 VHH with G44E, L45R, W47F
notes: V7R-2E9 with Q65K, K87R
B15: ID-A38U (VHH)
VHH: B1 VHH with L45R, W47F, R87K, S88A
notes: V7R-2E9 with E44G, Q65K, S88A
B16: ID-A36U (VHH)
VHH: B1 VHH with G44E, L45R, W47F, K65Q, S88A
notes: V7R-2E9 with K87R, S88A
B17: V7R-6C12 (VHH)
VHH: B1 VHH with G44E, L45R, W47F, R87K, D101V
notes: llama ICVD, primary clone, expressed in E. coli TG1; also called IL-7R-6C12; not shown: C-terminal FLAG and 6xHis tags from vector pMEK222

How the values were obtained:
[1] = molecular target: T1, recombinant human IL-7Rα-His6-Fc; assay: IL-7/IL-7Rα-His6-Fc ELISA; inhibition of IL-7 binding to IL-7R
[2] = molecular target: T1, recombinant human IL-7Rα-His6-Fc; assay: IL-7/IL-7R neutralising ELISA; inhibition of IL-7 binding to IL-7R
Experimental: A 7-point dilution series of the clones was prepared in 1% BSA (at 2× the assay concentration) starting at 300 nM and using a 3.2 dilution factor. […] Block buffer alone was also added to each plate as blank. […] TMB reaction was stopped after 30 minutes.
EC₅₀ values were generated in Graphpad prism using the ELISA signal blank corrected A450 data and ‘log(inhibitor) vs. response—Variable slope (four parameters)’ to fit curves and generate EC₅₀.

| Binder | EC50 [1] [pM] | EC50 [2] [pM] |
| --- | --- | --- |
| B1 | 476 | – |
| B2 | 362 | – |
| B3 | – | 640 |
| B4 | 849 | – |
| B5 | – | 361 |
| B6 | 845 | – |
| B7 | 336 | – |
| B8 | – | 259 |
| B9 | – | 264 |
| B10 | – | 222 |
| B11 | 429 | – |
| B12 | 367 | – |
| B13 | 411 | – |
| B14 | 376 | – |
| B15 | 789 | – |
| B16 | 797 | – |
| B17 | – | 416 |
